Ends that are not written are not given here.

The target in one test is Artificial Cell Surface (ACS). Nature of the test: ACS column adsorption of trypsin-digested dHSA, MALDI-TOF MS.
Molecule KYLYEIAR [KYLYEIAR (trypsin-generated albumin fragment, SEQ ID NO: 194)] showed a Percent Absorbed of 71%.
Still for that read-out and setting: the result for CCAAADPHECYAK [… (trypsin-generated albumin fragment, SEQ ID NO: 204)] reads 32%.
Consider LDELRDEGK [… (trypsin-generated albumin fragment, SEQ ID NO: 215)], for which the Percent Absorbed is 2%.
The same measure, in the same setting: for VFDEFKPLVEEPQNLIK [… (trypsin-generated albumin fragment, SEQ ID NO: 196)] the value was 60%.
The same measure, in the same setting: the result for FQNALLVR [FQNALLVR (trypsin-generated albumin fragment, SEQ ID NO: 199)] reads 41%; that for AAFTECCQAADK [… (trypsin-generated albumin fragment, SEQ ID NO: 205)], 29%.
Still for that read-out and setting: for LKECCEKPLLEK [… (trypsin-generated albumin fragment, SEQ ID NO: 201)] the value was 36%; for SLHTLFGDK [… (trypsin-generated albumin fragment, SEQ ID NO: 200)], 36%; for RPCFSALEVDETYVPK [… (trypsin-generated albumin fragment, SEQ ID NO: 198)], 42%.
Regarding DDNPNLPR [DDNPNLPR (trypsin-generated albumin fragment, SEQ ID NO: 216)], the Percent Absorbed was found to be 1%.
The same measure, in the same setting: the result for NECFLQHK [NECFLQHK (trypsin-generated albumin fragment, SEQ ID NO: 209)] reads 22%.
As for YLYEIAR [YLYEIAR (trypsin-generated albumin fragment, SEQ ID NO: 203)], the Percent Absorbed worked out at 34%.
AVMDDFAAFVEK [… (trypsin-generated albumin fragment, SEQ ID NO: 208)]: the Percent Absorbed came out at 23%.
As to FKDLGEENFK [… (trypsin-generated albumin fragment, SEQ ID NO: 213)], the Percent Absorbed was 8%.
In turn, QEPERNECFLQHK (not fully specified) [… (trypsin-generated albumin fragment, SEQ ID NO: 211)] displayed a Percent Absorbed of 18%.
Take YICENQDSISSK [… (trypsin-generated albumin fragment, SEQ ID NO: 214)]: the Percent Absorbed was 3%.
In the case of KVPQVSTPTLVEVSR [… (trypsin-generated albumin fragment, SEQ ID NO: 195)], the Percent Absorbed was found to be 64%.
The same measure, in the same setting: for VHTECCHGDLLECADDR [… (trypsin-generated albumin fragment, SEQ ID NO: 212)] the value was 13%; for VPQVSTPTLVEVSR [… (trypsin-generated albumin fragment, SEQ ID NO: 197)], 59%; for QEPERNECFLQHK (not fully specified) [… (trypsin-generated albumin fragment, SEQ ID NO: 207)], 25%.
CCTESLVNR [… (trypsin-generated albumin fragment, SEQ ID NO: 206)] returned a Percent Absorbed of 26%.

Another test addresses Artificial Cell Surface (ACS): biotinylated cell surface proteins of human PBMCs bound to a streptavidin column (human). Description: adsorption on ACS column, MALDI-TOF ms.
Regarding DKLCTVATLRETYGEM [Asp-N-generated albumin fragment, SEQ ID NO 222], the Percent Absorbed came out at 65%.
In turn, QEPERNECFLQHK (not fully specified) [Trypsin-generated albumin fragment, SEQ ID NO 211] gave a Percent Absorbed of 18%.
On the same count and under the same terms, the result for CCTESLVNR [Trypsin-generated albumin fragment, SEQ ID NO 206] reads 26%; that for YICENQDSISSK [Trypsin-generated albumin fragment, SEQ ID NO 214], 3%.
Still for that read-out and setting: for YLSVVLNQLCVLHEKTPVSDRVTKCCCTESLVNRRPFSALEV [Asp-N-generated albumin fragment, SEQ ID NO 230] the value was 37%.
The same measure, in the same setting: for LDELRDEGK [Trypsin-generated albumin fragment, SEQ ID NO 215] the value was 2%; for DETYVPKEFNAETFTHA [Asp-N-generated albumin fragment, SEQ ID NO 220], 86%; for VFLGMFLYEYARRHPDYSVVLLLRLAKTYETTLEKCCAAA [Asp-N-generated albumin fragment, SEQ ID NO 227], 100%.
As for ICTLSEKERQIKKQTALVELVKHKPKATKEQLKAVM [Asp-N-generated albumin fragment, SEQ ID NO 225], the Percent Absorbed was 100%.
Still for that read-out and setting: the result for AVMDDFAAFVEK [Trypsin-generated albumin fragment, SEQ ID NO 208] reads 23%; that for FKDLGEENFK [Trypsin-generated albumin fragment, SEQ ID NO 213], 8%.
As for DDKETCFAEEGKKLVAASQAALGL [Asp-N-generated albumin fragment, SEQ ID NO 218], the Percent Absorbed was found to be 100%.
Still for that read-out and setting: for AAFTECCQAADK [Trypsin-generated albumin fragment, SEQ ID NO 205] the value was 29%; for LGEENFKALVLIAFAQYLQQCPFEDHVKLVNEVTEFAKTCVA [Asp-N-generated albumin fragment, SEQ ID NO 228], 100%; for DRVTKCCTESLVNRRPCFSALEV [Asp-N-generated albumin fragment, SEQ ID NO 219], 87%.
On the same count and under the same terms, the result for YSVVLLLRLAKTYETTLEKCCAAADPHECYAKVF [Asp-N-generated albumin fragment, SEQ ID NO 223] reads 100%; that for KLCTVATLRETYGEMADCCAKQEPERNECFLQHK [Asp-N-generated albumin fragment, SEQ ID NO 224], 100%; that for LAKYICENQDSISSKLKECCEKPLLEKHCIAEVEN [Asp-N-generated albumin fragment, SEQ ID NO 226], 100%.
As to QEPERNECFLQHK (not fully specified) [Trypsin-generated albumin fragment, SEQ ID NO 207], the Percent Absorbed was 25%.
NECFLQHK [Trypsin-generated albumin fragment, SEQ ID NO 209] returned a Percent Absorbed of 22%.
In turn, DSISSKLKECCEKPLLEKSHCIAEVEN [Asp-N-generated albumin fragment, SEQ ID NO 221] returned a Percent Absorbed of 65%.
The same measure, in the same setting: the result for VHTECCHGDLLECADDR [Trypsin-generated albumin fragment, SEQ ID NO 212] reads 13%.
Still for that read-out and setting: for DHVKLVNEVTEFAKTCVA [Asp-N-generated albumin fragment, SEQ ID NO 217] the value was 100%; for RVTKCCTESLVNRRPCFSALEVDETYVPKEFNAETFTFHA [Asp-N-generated albumin fragment, SEQ ID NO 229], 100%.
On the same count and under the same terms, for DDNPNLPR [Trypsin-generated albumin fragment, SEQ ID NO 216] the value was 1%.
